Results taken from patent publication US20120213786A1 (ONCOMED PHARMACEUTICALS, published 2012).

T1: recombinant human Notch1 protein (human, UniProt P46531 1426-1731, limits assumed)
T1 construct: also called antigen
T1 sequence (looked up): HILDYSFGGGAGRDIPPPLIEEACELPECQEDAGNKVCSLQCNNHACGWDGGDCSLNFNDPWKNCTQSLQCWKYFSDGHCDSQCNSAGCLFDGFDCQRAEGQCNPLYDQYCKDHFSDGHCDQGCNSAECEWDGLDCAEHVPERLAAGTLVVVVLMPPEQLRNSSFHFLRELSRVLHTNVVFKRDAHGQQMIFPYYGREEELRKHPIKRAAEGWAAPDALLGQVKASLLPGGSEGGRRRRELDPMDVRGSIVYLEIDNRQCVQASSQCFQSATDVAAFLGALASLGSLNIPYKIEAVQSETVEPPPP


Molecular target: T1, recombinant human Notch1 protein
Test: SPR (Biacore 2000), recombinant human Notch1 amine-coupled to CM5 chip, antibody injected, global fit
Procedure: The affinities for human and mouse Notch1 were determined using a Biacore 2000 instrument. Briefly, recombinant human and mouse Notch1 proteins were immobilized on a CM5 chip using standard amine based chemistry (NHS/EDC). Different antibody concentrations were injected over the protein surfaces and kinetic data were collected over time. The data was fit using the simultaneous global fit equation to yield dissociation constants (KD, nM) for each Notch1 (Table 2).

Kd [nM]	Binder
4.33	humanized antibody 52M51H4L3 (antibody, human IgG2, lambda, V domains shown, Heavy chain 52M51-H4 (human IgG2 constant region) with light chain 52M51 L3 (human IgLC1 constant region); also called humanized variant of 52M51; ATCC PTA-9549) VH: QVQLVQSGAEVKKPGASVKISCKVSGYTLRGYWIEWVRQAPGKGLEWIGQILPGTGRTNYNEKFKGRVTMTADTSTDTAYMELSSLRSEDTAVYYCARFDGNYGYYAMDYWGQGTTVTVSS VL: SQAVVTQEPSLTVSPGGTVTLTCRSSTGAVTTSNYANWFQQKPGQAPRTLIGGTNNRAPGVPARFSGSLLGGKAALTLSGAQPEDEAEYYCALWYSNHWVFGGGTKLTVLG
7.35	humanized antibody 52M51H4L4 (antibody, human IgG2, lambda, V domains shown, Heavy chain 52M51-H4 (human IgG2 constant region) with light chain 52M51 L4 (human IgLC1 constant region)) VH: QVQLVQSGAEVKKPGASVKISCKVSGYTLRGYWIEWVRQAPGKGLEWIGQILPGTGRTNYNEKFKGRVTMTADTSTDTAYMELSSLRSEDTAVYYCARFDGNYGYYAMDYWGQGTTVTVSS VL: SQTVVTQEPSFSVSPGGTVTLTCRSSTGAVTTSNYANWYQQTPGQAPRTLIGGTNNRAPGVPDRFSGSILGNKAALTITGAQADDESDYYCALWYSNHWVFGGGTKLTVLG
2.86	murine monoclonal antibody 52M51 (antibody, mouse IgG1, V domains shown, Hybridoma-derived mouse antibody; also called anti-Notch1 antibody 52M51; ATCC PTA-9405) VH: QVQLQQSGAELMKPGASVKISCKAAGYTMRGYWIEWIKQRPGHGLEWIGQILPGTGRTNYNEKFKGKATFTADTSSNTANMQLSSLTSEDSAVYYCARFDGNYGYYAMDYWGQGSSVTVSS VL: QAVVTQESALTTSPGETVTLTCRSSTGAVTTSNYANWVQEKPDHLFTGLIGGTNNRAPGVPARFSGSLIGDKAALTITGAQTEDEAIYFCALWYSNHWVFGGGTKLTVLG
